Source: PMC4263767, “IL-28B is a Key Regulator of B- and T-Cell Vaccine Responses against Influenza” (PLoS Pathogens, 2014)
Like-named read-outs stand apart in the source and are kept apart here.

How the values were obtained:
Format in all cases: cell-based, human
[1] = tested on: B-cells in PBMCs from healthy volunteers; assay: H1N1-stimulated B-cell proliferation (Cell Trace Violet)
[2] = tested on: PBMCs from healthy volunteers; settings: 0 ng/mL: 19.2%, p = 0.92
Protocol: Prior to surface staining, LIVE/DEAD staining was performed (near-IR; Invitrogen). Markers for identifying T-cell subsets were CD3, and CD4. Intracellular cytokine staining was performed according to previously published protocols after overnight stimulation. IL-4 was used as a key representative for Th2 cytokine production. Background (unstimulated samples) were subtracted from stimulated results. All reagents including perm and fixation buffers and antibodies were from eBioscience. Isotype controls have previously been used to establish the assays.

[3] = tested on: PBMCs from healthy volunteers; assay: Time course of cytokine release, independently recruited healthy volunteers (S3 Figure); settings: IL-28B 100 ng/ml
Excerpt: Two luminex-based cytokine profiling kits were used (Eve Technologies, Calgary, Canada). (i) 17-plex: Fractalkine, IFN-α, IFN-γ, GRO, MCP-3, IL-13, sCD40-L, IL-9, IL-1β, IL-2, IL-4, IL-5, IL-6, IP-10, MCP-1, MIP-1α, and TNF-α. (ii) 41-plex: EGF, Eotaxin, FGF-2, FLT3, Fractalkine, G-CSF, GM-CSF, GRO. IFN-α2, IFN-γ, IL-1α, IL-1β, IL-1ra, IL-2, IL-3, IL-4, IL-5, IL-6, IL-7, IL-8, IL-9, IL-10, IL-12p40, IL-12p70, IL-13, IL-15, IL-17, IP-10, MCP-1, MCP-3, MDC, MIP-1α, MIP-1β, PDGF AA, PDGF AB/BB, RANTES, sCD40L, sIL2ra, TGF-α, TNF-α, TNF-β, and VEGF. Our independent experiment for examining a time course of cytokine induction was a custom-plex based on the 17-plex and still run and analyzed by Eve Technologies.
Supplementary file ppat.1004556.s003.tiff: S3 Figure A cytokine profile with pH1N1 stimulation +/− IL-28B pre-treatment (100 ng/ml) was performed. The time-points were collected within the same experiments. For the first 3 HVs studied, d+5 sample was not collected. Overall, the time-points d+1, d+3, d+7 were available in total 10 HVs and for d+5 in 7 HVs. Wilcoxon matched pairs rank test was used to test for significant difference. (TIFF) Click here for additional data file.

B1: IL-28B: recombinant IL-28B, a member of the interferon (IFN)-λ family (protein)
chain: VPVARLRGALPDARGCHIAQFKSLSPQELQAFKRAKDALEESLLLKDCKCRSRLFPRTWDLRQLQVRERPVALEAELALTLKVLEATADTDPALGDVLDQPLHTLHHILSQLRACIQPQPTAGPRTRGRLHHWLHRLQEAPKKESPGCLEASVTFNLFRLLTRDLNCVASGDLCV
modifications: left off: His tag, end not stated, kept
notes: recombinant IL-28B, a member of the interferon (IFN)-λ family
- reduction in proliferation capacity of memory B-cells ([1]; 5-day H1N1, n = 6): 70%
- H1N1-stimulated B-cell proliferation (in words) ([1]; IL-28B 1, 10, 100 ng/mL, 5-day H1N1, n = 6): dose-dependent decrease
- reduction of H1N1-stimulated B-cell proliferation ([1]; abstract, in vitro): 70%
- median % dead cells ([2]; IL-28B 1 ng/mL): 19.9%
- median % dead cells ([2]; IL-28B 10 ng/mL): 23.6%
- median % dead cells ([2]; IL-28B 100 ng/mL): 22.6%
- IFN-γ (in words) [3]: trend for upregulation
- Th1 and Th1-associated cytokines, early time-points (in words) [3]: significantly up-regulated (IFN-α, IL12p40, TNF- α, and IL-6)
- Th2 and Th2-associated cytokines, later time-points (in words) [3]: down-regulated
